Blank lines part the entries; values can stand above or below the molecule they belong to.
What was measured:
EphB2 [1] = target: T1, EphB2 (Homo sapiens, UniProt P29323); test: ADP-Glo luminescent kinase assay, Michaelis-Menten fit; assay type: biochemical; conditions: […] poly-(Glu:Tyr) […], MgCl2, Hepes pH […]°C; read-out: Km ATP
T1 construct: kinase domain 604-898 without juxtamembrane region; N-terminal His6-TEV tag cleaved (GSS left); E. coli BL21 Star (DE3), PTP1B co-expressed; unphosphorylated; synthetic codon-optimized gene
T1 sequence (P29323 604-898): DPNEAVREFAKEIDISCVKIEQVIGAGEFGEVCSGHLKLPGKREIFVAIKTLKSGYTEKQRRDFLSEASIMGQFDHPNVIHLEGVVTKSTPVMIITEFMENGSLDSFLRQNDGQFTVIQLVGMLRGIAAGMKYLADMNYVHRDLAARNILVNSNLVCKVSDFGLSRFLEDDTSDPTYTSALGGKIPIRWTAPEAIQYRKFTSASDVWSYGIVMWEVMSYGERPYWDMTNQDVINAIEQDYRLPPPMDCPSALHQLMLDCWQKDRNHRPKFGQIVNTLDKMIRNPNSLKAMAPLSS
Text: ADP-Glo luminescent kinase assay, Michaelis-Menten fit on EphB2

EphB1 = target: T2, EphB1 (Homo sapiens, UniProt P54762); test: ADP-Glo luminescent kinase assay; assay type: biochemical; conditions: ATP and poly-(Glu:Tyr) […] at Km of each kinase; MgCl2, Hepes pH […]°C, […] min, […] DMSO; unreliable: below assay tight binding limit of about […]
T2 construct: kinase domain 602-896 without juxtamembrane region; N-terminal His6-TEV tag cleaved (GSS left); E. coli BL21 Star (DE3), PTP1B co-expressed; unphosphorylated; synthetic codon-optimized gene
T2 sequence (P54762 602-896): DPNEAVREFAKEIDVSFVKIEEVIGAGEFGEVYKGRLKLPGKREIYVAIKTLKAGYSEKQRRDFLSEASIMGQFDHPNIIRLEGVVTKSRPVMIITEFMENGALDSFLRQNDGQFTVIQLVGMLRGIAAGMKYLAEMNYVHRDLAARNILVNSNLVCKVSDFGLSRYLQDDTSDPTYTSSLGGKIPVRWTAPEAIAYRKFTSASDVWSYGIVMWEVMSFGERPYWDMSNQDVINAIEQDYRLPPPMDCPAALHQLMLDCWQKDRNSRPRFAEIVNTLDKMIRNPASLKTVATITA
Text: ADP-Glo luminescent kinase assay on EphB1

EphB2 [2] = target: T1, EphB2; test: ADP-Glo luminescent kinase assay; assay type: biochemical; conditions: ATP and poly-(Glu:Tyr) […] at Km of each kinase; MgCl2, Hepes pH […]°C, […] min, […] DMSO; unreliable: below assay tight binding limit of about […]
Text: ADP-Glo luminescent kinase assay on EphB2

[3] = substrate: Nc1ncnc2c1ncn2[C@@H]1O[C@H](COP(=O)(O)OP(=O)(O)OP(=O)(O)O)[C@@H](O)[C@H]1O; test: ADP-Glo luminescent kinase assay, Michaelis-Menten fit; assay type: biochemical, Homo sapiens; conditions: […] poly-(Glu:Tyr) […], MgCl2, Hepes pH […]
Text: ADP-Glo luminescent kinase assay, Michaelis-Menten fit on EphB4

[4] = substrate: Nc1ncnc2c1ncn2[C@@H]1O[C@H](COP(=O)(O)OP(=O)(O)OP(=O)(O)O)[C@@H](O)[C@H]1O; test: as above; assay type: biochemical, Homo sapiens; conditions: […] poly-(Glu:Tyr) […], MgCl2, Hepes pH […]; remark: listed apart in the source
Text: ADP-Glo luminescent kinase assay, Michaelis-Menten fit on EphB1

[5] = substrate: Nc1ncnc2c1ncn2[C@@H]1O[C@H](COP(=O)(O)OP(=O)(O)OP(=O)(O)O)[C@@H](O)[C@H]1O; test: as above; assay type: biochemical, Homo sapiens; conditions: […] poly-(Glu:Tyr) […], MgCl2, Hepes pH […]; remark: listed apart in the source
Text: ADP-Glo luminescent kinase assay, Michaelis-Menten fit on EphB3

Km (EphB2 [1]): 751 ± 80 µM
Molecule: Nc1ncnc2c1ncn2[C@@H]1O[C@H](COP(=O)(O)OP(=O)(O)OP(=O)(O)O)[C@@H](O)[C@H]1O [ATP]

EphB1 / IC50 (EphB1): 10 nM
EphB2 / IC50 (EphB2 [2]): 7 nM
Molecule: Cc1nc(Nc2ncc(C(=O)Nc3c(C)cccc3Cl)s2)cc(N2CCN(CCO)CC2)n1 [Dasatinib]

B1: EphB4 (Homo sapiens) (protein)
chain: DPNEAVREFAKEIDVSYVKIEEVIGAGEFGEVCRGRLKAPGKKESCVAIKTLKGGYTERQRREFLSEASIMGQFEHPNIIRLEGVVTNSMPVMILTEFMENGALDSFLRLNDGQFTVIQLVGMLRGIASGMRYLAEMSYVHRDLAARNILVNSNLVCKVSDFGLSRFLEENSSDPTYTSSLGGKIPIRWTAPEAIAFRKFTSASDAWSYGIVMWEVMSFGERPYWDMSNQDVINAIEQDYRLPPPPDCPTSLHQLMLDCWQKDRNARPRFPQVVSALDKMIRNPASLKIVARENG
notes: kinase domain 598-892 without juxtamembrane region; N-terminal His6-TEV tag cleaved (GSS left); E. coli BL21 Star (DE3), PTP1B and GroES/GroEL co-expressed; unphosphorylated; synthetic codon-optimized gene
Km [3]: 497 ± 39 µM
kcat [3]: 0.51 ± 0.01 s⁻¹

B2: EphB1 (Homo sapiens) (protein)
chain: DPNEAVREFAKEIDVSFVKIEEVIGAGEFGEVYKGRLKLPGKREIYVAIKTLKAGYSEKQRRDFLSEASIMGQFDHPNIIRLEGVVTKSRPVMIITEFMENGALDSFLRQNDGQFTVIQLVGMLRGIAAGMKYLAEMNYVHRDLAARNILVNSNLVCKVSDFGLSRYLQDDTSDPTYTSSLGGKIPVRWTAPEAIAYRKFTSASDVWSYGIVMWEVMSFGERPYWDMSNQDVINAIEQDYRLPPPMDCPAALHQLMLDCWQKDRNSRPRFAEIVNTLDKMIRNPASLKTVATITA
notes: kinase domain 602-896 without juxtamembrane region; N-terminal His6-TEV tag cleaved (GSS left); E. coli BL21 Star (DE3), PTP1B co-expressed; unphosphorylated; synthetic codon-optimized gene
Km [4]: 555 ± 36 µM
kcat [4]: 0.80 ± 0.02 s⁻¹

B3: EphB3 (Homo sapiens) (protein)
chain: DPNEAVREFAKEIDVSCVKIEEVIGAGEFGEVCRGRLKQPGRREVFVAIKTLKVGYTERQRRDFLSEASIMGQFDHPNIIRLEGVVTKSRPVMILTEFMENCALDSFLRLNDGQFTVIQLVGMLRGIAAGMKYLSEMNYVHRDLAARNILVNSNLVCKVSDFGLSRFLEDDPSDPTYTSSLGGKIPIRWTAPEAIAYRKFTSASDVWSYGIVMWEVMSYGERPYWDMSNQDVINAVEQDYRLPPPMDCPTALHQLMLDCWVRDRNLRPKFSQIVNTLDKLIRNAASLKVIASAQS
notes: kinase domain 616-910 without juxtamembrane region; N-terminal His6-TEV tag cleaved (GSS left); E. coli BL21 Star (DE3), PTP1B co-expressed; unphosphorylated; synthetic codon-optimized gene
Km [5]: 506 ± 48 µM
kcat [5]: 0.43 ± 0.01 s⁻¹

B4: EphB3 (Homo sapiens; C717G) (protein)
chain: DPNEAVREFAKEIDVSCVKIEEVIGAGEFGEVCRGRLKQPGRREVFVAIKTLKVGYTERQRRDFLSEASIMGQFDHPNIIRLEGVVTKSRPVMILTEFMENGALDSFLRLNDGQFTVIQLVGMLRGIAAGMKYLSEMNYVHRDLAARNILVNSNLVCKVSDFGLSRFLEDDPSDPTYTSSLGGKIPIRWTAPEAIAYRKFTSASDVWSYGIVMWEVMSYGERPYWDMSNQDVINAVEQDYRLPPPMDCPTALHQLMLDCWVRDRNLRPKFSQIVNTLDKLIRNAASLKVIASAQS
notes: as for B3
Km [5]: 659 ± 67 µM
kcat [5]: 0.86 ± 0.03 s⁻¹
